Experimental data taken from article PMC3817407.

Columns and labels:
ECF15_436 = target: T1, ECF15_436
T1 chain: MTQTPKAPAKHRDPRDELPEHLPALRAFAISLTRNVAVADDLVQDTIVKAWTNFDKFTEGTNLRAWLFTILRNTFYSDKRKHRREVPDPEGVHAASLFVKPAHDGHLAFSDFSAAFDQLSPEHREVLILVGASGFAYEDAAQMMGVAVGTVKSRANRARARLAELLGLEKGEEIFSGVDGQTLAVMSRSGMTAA

ECF20_992 = target: T2, ECF20_992
T2 chain: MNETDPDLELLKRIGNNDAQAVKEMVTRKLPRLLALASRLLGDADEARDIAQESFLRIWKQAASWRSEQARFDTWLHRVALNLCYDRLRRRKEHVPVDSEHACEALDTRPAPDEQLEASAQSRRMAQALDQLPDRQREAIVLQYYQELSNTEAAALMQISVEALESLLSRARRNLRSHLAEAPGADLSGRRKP

ECF34_1384 = target: T3, ECF34_1384
T3 chain: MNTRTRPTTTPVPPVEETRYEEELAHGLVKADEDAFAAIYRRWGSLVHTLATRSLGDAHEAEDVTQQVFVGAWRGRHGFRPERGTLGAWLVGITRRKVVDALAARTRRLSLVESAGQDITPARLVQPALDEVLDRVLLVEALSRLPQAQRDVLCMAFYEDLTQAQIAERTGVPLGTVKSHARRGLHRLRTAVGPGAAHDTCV

ECF22_4450 = target: T4, ECF22_4450
T4 chain: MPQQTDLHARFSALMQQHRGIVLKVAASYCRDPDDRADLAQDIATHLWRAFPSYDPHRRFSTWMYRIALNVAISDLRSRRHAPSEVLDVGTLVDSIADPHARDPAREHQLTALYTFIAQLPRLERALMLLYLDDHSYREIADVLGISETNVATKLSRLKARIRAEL

ECF17_1458 = target: T5, ECF17_1458
T5 chain: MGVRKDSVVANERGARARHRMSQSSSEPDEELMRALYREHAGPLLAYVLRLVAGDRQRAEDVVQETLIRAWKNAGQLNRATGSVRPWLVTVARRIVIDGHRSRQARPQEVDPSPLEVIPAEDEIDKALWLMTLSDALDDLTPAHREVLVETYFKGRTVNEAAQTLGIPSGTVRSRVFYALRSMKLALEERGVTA

ECF03_1244 = target: T6, ECF03_1244
T6 chain: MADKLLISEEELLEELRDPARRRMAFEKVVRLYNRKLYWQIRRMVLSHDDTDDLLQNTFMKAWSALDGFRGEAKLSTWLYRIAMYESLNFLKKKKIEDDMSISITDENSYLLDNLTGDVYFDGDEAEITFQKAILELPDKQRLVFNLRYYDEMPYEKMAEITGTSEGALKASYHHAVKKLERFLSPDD

B1: AS11_987 (protein)
chain: MNKHPDNNLLEAYASGSIDAVSGLVVATHLETCSKCRAYVNQVEASQANTVSESPSEYSPEFDDMLNDIINAEPVNDNVVIQDTAFVNVAGKSFELPKTLVRFSDLVGSWRSYGGKVFSAQIDLGEDARVSLMYIGENVQIPQHTHRGLESTLVLHGGFSDEDGQYEEGDLMVRDASVKHSPFTQEGEDCLCLTVLTEPMIFTQGVARIFNLFGKGLYP
fold repression (ECF15_436): 3.32
fold repression (ECF20_992): 3.26
fold repression (ECF34_1384): 2.37
fold repression (ECF22_4450): 5.44
fold repression (ECF17_1458): 2.13
fold repression (ECF03_1244): 2.2

B2: AS14_1324 (protein)
chain: MSGSRPEPEGHLAEQHLGDRLSALVDGELGHDARERVLAHVATCPKCKAEVDAQRRLKNVFAEAAPPAPSESFLARLQGLPGGGDSDGGGSPFSGLPGGFGASAASGVFGPRRDERFEFDYVPAGSHTPVLPSATSGRGFRIHEVGRHESDRSASRGLRFAFAAAGAVSLAAIALGGVTLGTPDTTTEARGSGSGSNVTPLRTPGSAAATGSESQRRRTAGPLLGQGQRALGDLPVASTTASAPLLPGMPAPAGGDARQQAVRALTTPVTAGAAAMSPLIRPLEAVPPLSLSSWSAAPEVRPPGLLAAPDPAPSPYPAASPAASSSPLR
fold repression (ECF15_436): 6.5
fold repression (ECF20_992): 6.81
fold repression (ECF34_1384): 2.76
fold repression (ECF22_4450): 8.4
fold repression (ECF17_1458): 7.16
fold repression (ECF03_1244): 3.13

B3: AS01_3473 (protein)
chain: MSNYDNAELLALWLEGKLTPKQRDEFEQRCIQDSQFAEQVDAAAMVKIGADDYSSSEVPQWNKAATFEPQQANNSGSWLSGVSLVTSALAIVLVLTGTQVTTSEGELRIRFGSGQSEQALVKLVDSKLDAFKQNQQDAFTLYAQTLQQQQSESASQLTNYLLSSSRKERREDFAELIKFVNQQRSDDQLFYARQLNQLQQDVYHDATGVALESIQQ
fold repression (ECF15_436): 1.94
fold repression (ECF20_992): 2.52
fold repression (ECF34_1384): 1.64
fold repression (ECF22_4450): 1.97
fold repression (ECF17_1458): 1.83
fold repression (ECF03_1244): 1.39

B4: AS22_1147 (protein)
chain: MELDDIAVAWRSLEQRLDQHAALAGQVLGDLRSHAARAHLRPLWLSQSAQLLCAIALSGLVAHSWLAFPEQAAAIVGGVLLQIWCVALAASAARQLWLLSQLDFARPLLQTQRALAQLRRWRTRVAPWLGVAFWVLWVAVADAAWRALTGRSLPYAWLLCNLLVGVLGGIGTWLGYRRLQRSGHPWLERLDTVHAGRSVARTETLLEQIARFQRE
fold repression (ECF15_436): 3.01
fold repression (ECF20_992): 2.35
fold repression (ECF34_1384): 2.09
fold repression (ECF22_4450): 35.7
fold repression (ECF17_1458): 2.2
fold repression (ECF03_1244): 3.22

B5: AS15_436 (protein)
chain: MAQSTEPKASPQEATAKGGDNTKGKSRKELQQQIDENLRRVYEEALVQEVPDRFAMLLDQLRQKGTGK
fold repression (ECF15_436): 46.1
fold repression (ECF20_992): 1.95
fold repression (ECF34_1384): 2.2
fold repression (ECF22_4450): 4.63
fold repression (ECF17_1458): 5.96
fold repression (ECF03_1244): 1.54

B6: AS25_1643_cl43 (protein)
chain: MTTDSNFNDPCRRQFSRDLPQKMARHTNEATGAMDMVKRDRFELLSAYLGGEVTAAERRQVEDWPANDVAVQRLYSRLLKLRQGIRTMPIPTAQQSPETTAEQVFAKVNRRSRLAWKLGGAAVAACVIGAVTNWLPGRQTGIPQLAQQPQEQPTQAVTTPDALPMIALNNPVIEIPKAAVASPTKFIQPQPQLGEIPPDIN
fold repression (ECF15_436): 1.2
fold repression (ECF20_992): 1.99
fold repression (ECF34_1384): 2.43
fold repression (ECF22_4450): 3.35
fold repression (ECF17_1458): 2.2
fold repression (ECF03_1244): 1.06

B7: AS15_524 (protein)
chain: MNFGVEDMIEHVPMEDKRKGAAALDEARLRQQAIGVKLRQMFDEVVNEPVPDEFLAILRKAERPAGGE
fold repression (ECF15_436): 16.7
fold repression (ECF20_992): 5.56
fold repression (ECF34_1384): 5.15
fold repression (ECF22_4450): 11.1
fold repression (ECF17_1458): 9.33
fold repression (ECF03_1244): 2.96

B8: AS16_973 (protein)
chain: MKTDDLIALLAAGEGPVPRHAVGRRMAVAALGGLTAALLLTITLYGVRSDITEVAQTPLFWGKVAFPTSLALIGLWLTSRLARPGGKGAAGWKMLGLPLLLVWCGAAVSIAGAPVDARADLLFGRTWRTCALNIALLSVPAFVTVFWALKGLAPTRLRLAGAAGGLLAGSSATVAYCLHCPEMGVPFWGVWYVLGMLVPTVLGAWWGPRMLRW
fold repression (ECF15_436): 0.884
fold repression (ECF20_992): 0.636
fold repression (ECF34_1384): 0.757
fold repression (ECF22_4450): 2.62
fold repression (ECF17_1458): 1.11
fold repression (ECF03_1244): 0.783

B9: AS03_1198 (protein)
chain: MDKDFDFDNIGKRTPYRTPDNFFEETQRKILERTVDEQRKKRRLKRIIPTVIAVAAVLAGILFTPSLRYMNTDTPSASNILAVDKNNVTTDPVDKWIKELSDEELEELVSFSENDIFLN
fold repression (ECF15_436): 1.11
fold repression (ECF20_992): 0.888
fold repression (ECF34_1384): 0.959
fold repression (ECF22_4450): 1.2
fold repression (ECF17_1458): 0.894
fold repression (ECF03_1244): 1.36

B10: AS16_3622 (protein)
chain: MMKTDELISLLATAEGPVDRHALARRLGLALLAGLLGALLLTVALYGVRSDLAEVARTPLFWAKVALPTSLALLGLWLTQRLARPGVRGGALWGLLGVPLLLVWLGAAISLFGAPPEARADLIFGRTWRTCALNITLLSTPVFIAVFWALRGLAPTRLRQAGAAGGLLAGSTATLVYCLHCPEMGVPFWGLWYLLGMLVPTLLGAVLGPRLLRW
fold repression (ECF15_436): 4.75
fold repression (ECF20_992): 2.48
fold repression (ECF34_1384): 2.8
fold repression (ECF22_4450): 4.51
fold repression (ECF17_1458): 4.75
fold repression (ECF03_1244): 2.09

B11: AS22_4450 (protein)
chain: MELDDMKHAWQTLEQRLDQQAAQTGQLLGVVHEETVRSSLRPLWVAQTAQLLCALALAIVSARSWIPHTDQPVAVIGGVLLQAWCMALAISAMVQLQLLTQFNVAGPLLRTQHALARLRRWRTRVAPWLGVAFWVLWIAVADALWRALTGQTLPTDWLVLNLLVGVAGGIGTWLGFRRLQRAQHPWLERIDRAHAGTGVIRAERMLEEIARFQRD
fold repression (ECF15_436): 1.41
fold repression (ECF20_992): 1.54
fold repression (ECF34_1384): 1.66
fold repression (ECF22_4450): 12.7
fold repression (ECF17_1458): 1.23
fold repression (ECF03_1244): 1.75

B12: AS03_1244 (protein)
chain: MKQFDPDVNIRPKEDSIRHYSVPDDYFASFTDKLMAQIPAVKEENTVVVPSVALWPKLRPLLYLAASFLLMIGMFKAFSLFGVGSDTGRTTSTSAGLVALDHGDTRWSEDTDYRDFLHDNCAETVSDEWVLTDFSE
fold repression (ECF15_436): 2.04
fold repression (ECF20_992): 1.93
fold repression (ECF34_1384): 1.65
fold repression (ECF22_4450): 2.49
fold repression (ECF17_1458): 1.62
fold repression (ECF03_1244): 60.8

B13: AS02_915 (protein)
chain: MEKTGQEWVSASVDGETDRQTLAELAADTDSHAKWQRYHLMGDAMRDELPQAMPLDLSARIAAALEDEPTILAPKVEREATQAPSRAVVVPFMRQLGQYGIAAAVALMAVVGVQNYQSTQDDAPLPVLNTRPLVGTATPVSLQTGPVANQNQGNANDQLLEQRRRINAYLQDHMLQQRLNTGAVVDDNSEVTPIPVNR
fold repression (ECF15_436): 3.47
fold repression (ECF20_992): 4.44
fold repression (ECF34_1384): 3.28
fold repression (ECF22_4450): 4.13
fold repression (ECF17_1458): 2.74
fold repression (ECF03_1244): 3.01

B14: AS20_992 (protein)
chain: MTPERFVHLADAYGADLQRWPSAERAAAQALLDCGDAQAVAALRQAHWLDSQLDRYQVPAPSPALAQRIIAAAQQPGAPFWSRYAGWLASLGWVGVGLTGVAAGMLAVALSLPLSTSAEALPSVFDQSDAEFVLSINAEEAEQ
fold repression (ECF15_436): 1.32
fold repression (ECF20_992): 169
fold repression (ECF34_1384): 1.64
fold repression (ECF22_4450): 2.29
fold repression (ECF17_1458): 1.5
fold repression (ECF03_1244): 1.39

B15: AS04_1609 (protein)
chain: MNRTTEQRNAEVMKTIGLLDQMPRVEVDHLFRVRLMQRIEAMEVKKTSWSALPGGAFNPRLAFMALLLMLNIASALMLFMHGTPQATGSSGAIAESLTEDYGGPALSYYDDQTTIDR
fold repression (ECF15_436): 5.75
fold repression (ECF20_992): 7.41
fold repression (ECF34_1384): 2.28
fold repression (ECF22_4450): 9.53
fold repression (ECF17_1458): 3.13
fold repression (ECF03_1244): 4.39
